Earlier results, collected in patent US5608039A, “Single chain B3 antibody fusion proteins and their uses” (The United States of America as represented by the …, priority 1994, dated 1997).

Conditions: in vivo

Which toxicity does the source give for PE here?
Its toxicity is “highly toxic compounds that typically bring about death through liver toxicity”.
